In patent US20230242577A1 (UBIPROTEIN, published 2023):

B1: pcDNA3-myc-G-CSF WT (ligand)
chain: TPLGPASSLPQSFLLKCLEQVRKIQGDGAALQEKLVSECATYKLCHPEELVLLGHSLGIPWAPLSSCPSQALQLAGCLSQLHSGLFLYQGLLQALEGISPELGPTLDTLQLDVADFATTIWQQMEELGMAPALQPTQGAMPAFASAFQRRAGGVLVASHLQSFLEVSYRVLRHLAQP
notes: also called human G-CSF; not shown: myc tag of the pcDNA3-myc vector
B2: pCMV3-C-myc-prepro-GHRL WT (ligand)
chain: GSSFLSPEHQRVQQRKESKKPPAKLQPRALAGWLRPEDGGQAEGAEDEMEVRFNAPFDVGIKLSGVQYQQHSQALGKFLQDILWEEAKEAPADK
notes: also called Ghrelin/obestatin preprohormone; appetite stimulating hormone precursor; not shown: myc tag of the pCMV3-C-myc vector
B3: pCMV3-C-myc-VEGFA WT (ligand)
chain: APMAEGGGQNHHEVVKFMDVYQRSYCHPIETLVDIFQEYPDEIEYIFKPSCVPLMRCGGCCNDEGLECVPTEESNITMQIMRIKPHQGQHIGEMSFLQHNKCECRPKKDRARQEKKSVRGKGKGQKRKRKKSRPCGPCSERRKHLFVQDPQTCKCSCKNTDSRCKARQLELNERTCRCDKPRR
notes: also called vascular endothelial growth factor A; human VEGFA; not shown: myc tag of the pCMV3-C-myc vector
B4: pcDNA3-myc-GLP-1 WT (ligand)
chain: HAEGTFTSDVSSYLEGQAAKEFIAWLVKGRG
notes: also called glucagon-like peptide-1; human GLP-1; not shown: myc tag of the pcDNA3-myc vector
B5: pcDNA3-myc-β-trophin WT (ligand)
chain: APMGGPELAQHEELTLLFHGTLQLGQALNGVYRTTEGRLTKARNSLGLYGRTIELLGQEVSRGRDAAQELRASLLETQMEEDILQLQAEATAEVLGEVAQAQKVLRDSVQRLEVQLRSAWLGPAYREFEVLKAHADKQSHILWALTGHVQRQRREMVAQQHRLRQIQERLHTAALPA
notes: also called human β-trophin; not shown: myc tag of the pcDNA3-myc vector
B6: pcDNA3-myc-interferon-β WT (ligand)
chain: MSYNLLGFLQRSSNFQCQKLLWQLNGRLEYCLKDRMNFDIPEEIKQLQQFQKEDAALTIYEMLQNIFAIFRQDSSSTGWNETIVENLLANVYHQINHLKTVLEEKLEKEDFTRGKLMSSLHLKRYYGRILHYLKAKEYSHCAWTIVRVEILRNFYFINRLTGYLRN
notes: also called IFN-β; human interferon-β; not shown: myc tag of the pcDNA3-myc vector

Biological target: T1, HA-ubiquitin (from pMT123-HA-ubiquitin) (UniProt P0CG47 1-76)
T1 construct: one ubiquitin unit is residues 1-76; not shown: HA tag of pMT123-HA-ubiquitin
Test: anti-myc IP, anti-HA blot, HEK 293T co-transfected with HA-ubiquitin (ubiquitination)

Binding result, binds:
B1, B2, B3, B4, B5, B6
